In general, kcat refers to the number of substrate molecules converted per active site and unit of time at saturation. By KM is commonly meant the concentration of substrate that gives half-maximal velocity.

± gives the standard error. For some assays here: Fewer inactive variants are shown than the library holds. A value given as a limit tells only on which side of the number the result lay.

Consider 16 variants from the supplement of paper PMC7125110.

B1: glmS ribozyme (parent)
chain: AUAAAAGCGCCAGAACUACAGAAAUGUAGUUGACGAGGAGGAGGUUUAUCGAAUUUUCGGCGGAUGCCUCCAAA

Common to all, as to details: with glucosamine-6-phosphate
In series [1] the parent is B1. Description: kcat; higher = faster cleavage; RNA array. An outline of the steps:
(§1)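 Tiles of sequenced MiSeq chips were imaged over ~14 h at 37 °C. On them, barcoded ribozyme variants had been transcribed in situ by E. coli RNA polymerase and were tracked via a hybridised Cy3 probe while glucosamine-6-phosphate (40 μM to 10 mM) in HEPES/KCl/Mg(OAc)2 buffer flowed in. Per-tile medians, normalised to baseline and to non-cleaving reference variants, were fit to one- or two-exponential decays for kobs, and weighted Michaelis–Menten fits gave kcat and KM.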

In series [2] the parent is B1. Description: KM; higher = weaker cofactor use; RNA array. An outline of the steps:
as §1

Series [3] covers variants of B1. Nature of the series: self-cleavage kobs at 40 uM GlcN6P; higher = faster cleavage; RNA array. An outline of the steps:
as §1

In series [4] the parent is B1. Nature of the series: self-cleavage kobs at 160 uM GlcN6P; higher = faster cleavage; RNA array. An outline of the steps:
as §1

The variants in series [5] derive from B1. Description: self-cleavage kobs at 640 uM GlcN6P; higher = faster cleavage; RNA array. An outline of the steps: as §1
Variants of B1 are the subject of series [6]. Nature of the series: self-cleavage kobs at 2500 uM GlcN6P; higher = faster cleavage; RNA array. An outline of the steps: as §1
The variants in series [7] derive from B1. Description: self-cleavage kobs at 10000 uM GlcN6P; higher = faster cleavage; RNA array. An outline of the steps:
as §1

On to A15G U47C, for which the kcat with glucosamine-6-phosphate [1] was 0.0057 ± 0.00076 s⁻¹. Further, the Michaelis-Menten constant (KM) with glucosamine-6-phosphate [2] is 1660 ± 350 µM. In the series with glucosamine-6-phosphate [3], the “self-cleavage kobs at 40 uM GlcN6P” value was found to be 0.000151 ± 3.2e-05 s⁻¹. Besides, the “self-cleavage kobs at 160 uM GlcN6P” value with glucosamine-6-phosphate [4] stood at 0.000348 ± 0.00016 s⁻¹. Also, the “self-cleavage kobs at 640 uM GlcN6P” value with glucosamine-6-phosphate [5] was 0.00164 ± 0.0005 s⁻¹. The “self-cleavage kobs at 2500 uM GlcN6P” value in the series with glucosamine-6-phosphate [6] stood at 0.00388 ± 0.00099 s⁻¹. Besides, the “self-cleavage kobs at 10000 uM GlcN6P” value with glucosamine-6-phosphate [7] is 0.00476 ± 0.00083 s⁻¹.

A53U C58G: the catalytic constant (kcat) with glucosamine-6-phosphate [1] worked out at 9.99e-05 ± 7.2e-06 s⁻¹. Also, the Michaelis-Menten constant (KM) with glucosamine-6-phosphate [2] worked out at 1390 ± 370 µM. Also, in the series with glucosamine-6-phosphate [5], the “self-cleavage kobs at 640 uM GlcN6P” value amounted to 2.6e-05 ± 9.5e-06 s⁻¹. Also, the “self-cleavage kobs at 2500 uM GlcN6P” value with glucosamine-6-phosphate [6] amounted to 7.16e-05 ± 1e-05 s⁻¹. In the series with glucosamine-6-phosphate [7], the “self-cleavage kobs at 10000 uM GlcN6P” value worked out at 8.57e-05 ± 8e-06 s⁻¹.

Take A15G C68A: in the series with glucosamine-6-phosphate [1], the kcat is 6.63e-05 ± 4.7e-06 s⁻¹. In addition, in the series with glucosamine-6-phosphate [2], the KM was found to be 131 ± 49 µM. Also, the “self-cleavage kobs at 160 uM GlcN6P” value with glucosamine-6-phosphate [4] came out at 3.62e-05 ± 9e-06 s⁻¹. The “self-cleavage kobs at 640 uM GlcN6P” value in the series with glucosamine-6-phosphate [5] stood at 5.49e-05 ± 1.2e-05 s⁻¹. In the series with glucosamine-6-phosphate [6], the “self-cleavage kobs at 2500 uM GlcN6P” value stood at 7.32e-05 ± 1.2e-05 s⁻¹. Also, the “self-cleavage kobs at 10000 uM GlcN6P” value in the series with glucosamine-6-phosphate [7] was determined as 6.03e-05 ± 9.3e-06 s⁻¹.

As to A36U G38A, the kcat in the series with glucosamine-6-phosphate [1] is below 1e-05 s⁻¹.

As for C8A G29A C50G G66A C70G, in the series with glucosamine-6-phosphate [1], the kcat amounted to 7.47e-05 ± 2e-05 s⁻¹. Moreover, the “self-cleavage kobs at 160 uM GlcN6P” value with glucosamine-6-phosphate [4] amounted to 9e-05 ± 1.5e-05 s⁻¹. Further, the “self-cleavage kobs at 640 uM GlcN6P” value in the series with glucosamine-6-phosphate [5] is 4.95e-05 ± 1.7e-05 s⁻¹. Besides, the “self-cleavage kobs at 2500 uM GlcN6P” value with glucosamine-6-phosphate [6] is 7.56e-05 ± 1.6e-05 s⁻¹.

In the case of U45C, in the series with glucosamine-6-phosphate [1], the kcat came to 0.00494 ± 0.00052 s⁻¹. In addition, in the series with glucosamine-6-phosphate [2], the KM was 2740 ± 390 µM. The “self-cleavage kobs at 40 uM GlcN6P” value with glucosamine-6-phosphate [3] is 7.81e-05 ± 1.8e-06 s⁻¹. Further, the “self-cleavage kobs at 160 uM GlcN6P” value in the series with glucosamine-6-phosphate [4] is 0.000232 ± 9.5e-06 s⁻¹. Further, in the series with glucosamine-6-phosphate [5], the “self-cleavage kobs at 640 uM GlcN6P” value is 0.000897 ± 2.2e-05 s⁻¹. For the same variant, the “self-cleavage kobs at 2500 uM GlcN6P” value in the series with glucosamine-6-phosphate [6] worked out at 0.00247 ± 6.8e-05 s⁻¹. For the same variant, in the series with glucosamine-6-phosphate [7], the “self-cleavage kobs at 10000 uM GlcN6P” value was 0.00385 ± 9.4e-05 s⁻¹.

For C34A G51U C67U, the kcat in the series with glucosamine-6-phosphate [1] came out at 0.000275 ± 1.8e-05 s⁻¹. Moreover, the Michaelis constant (KM) with glucosamine-6-phosphate [2] amounted to 2730 ± 390 µM. Besides, the “self-cleavage kobs at 640 uM GlcN6P” value with glucosamine-6-phosphate [5] amounted to 4.9e-05 ± 2e-05 s⁻¹. For the same variant, the “self-cleavage kobs at 2500 uM GlcN6P” value in the series with glucosamine-6-phosphate [6] worked out at 0.00014 ± 3.7e-05 s⁻¹. Further, the “self-cleavage kobs at 10000 uM GlcN6P” value with glucosamine-6-phosphate [7] is 0.000213 ± 4.5e-05 s⁻¹.

Regarding A53G U57A, the kcat with glucosamine-6-phosphate [1] came out at 0.000309 ± 2.3e-05 s⁻¹. The KM in the series with glucosamine-6-phosphate [2] stood at 3400 ± 490 µM. Besides, the “self-cleavage kobs at 640 uM GlcN6P” value with glucosamine-6-phosphate [5] was 4.7e-05 ± 1.1e-05 s⁻¹. For the same variant, the “self-cleavage kobs at 2500 uM GlcN6P” value in the series with glucosamine-6-phosphate [6] came to 0.000134 ± 2.3e-05 s⁻¹. Further, the “self-cleavage kobs at 10000 uM GlcN6P” value in the series with glucosamine-6-phosphate [7] stood at 0.00023 ± 2.9e-05 s⁻¹.

On to G62A C71G, for which the kcat with glucosamine-6-phosphate [1] stood at 1.44e-05 ± 2.8e-06 s⁻¹.

With U69C C71U, the kcat with glucosamine-6-phosphate [1] was determined as 0.000591 ± 7.2e-05 s⁻¹. In addition, the KM with glucosamine-6-phosphate [2] stood at 368 ± 88 µM. In addition, the “self-cleavage kobs at 40 uM GlcN6P” value with glucosamine-6-phosphate [3] came out at 5.8e-05 ± 1.1e-05 s⁻¹. Further, the “self-cleavage kobs at 160 uM GlcN6P” value in the series with glucosamine-6-phosphate [4] was 0.000208 ± 5.6e-05 s⁻¹. Moreover, the “self-cleavage kobs at 640 uM GlcN6P” value in the series with glucosamine-6-phosphate [5] worked out at 0.000326 ± 9.3e-05 s⁻¹. The “self-cleavage kobs at 2500 uM GlcN6P” value with glucosamine-6-phosphate [6] is 0.000432 ± 9.4e-05 s⁻¹. In the series with glucosamine-6-phosphate [7], the “self-cleavage kobs at 10000 uM GlcN6P” value stood at 0.000676 ± 0.00011 s⁻¹.

Regarding A14C U57A U69A, the kcat with glucosamine-6-phosphate [1] came to 3.51e-05 ± 1.3e-05 s⁻¹. In addition, the “self-cleavage kobs at 640 uM GlcN6P” value with glucosamine-6-phosphate [5] came to 4.77e-05 ± 2.2e-05 s⁻¹.

As to C58G, the kcat with glucosamine-6-phosphate [1] is 0.000194 ± 8.4e-06 s⁻¹. Also, the Michaelis-Menten constant (KM) with glucosamine-6-phosphate [2] was 3180 ± 300 µM. Further, the “self-cleavage kobs at 160 uM GlcN6P” value with glucosamine-6-phosphate [4] came to 1.37e-05 ± 2.9e-06 s⁻¹. Also, the “self-cleavage kobs at 640 uM GlcN6P” value in the series with glucosamine-6-phosphate [5] is 3.47e-05 ± 1.2e-06 s⁻¹. Moreover, the “self-cleavage kobs at 2500 uM GlcN6P” value with glucosamine-6-phosphate [6] amounted to 8.3e-05 ± 1.6e-06 s⁻¹. For the same variant, the “self-cleavage kobs at 10000 uM GlcN6P” value with glucosamine-6-phosphate [7] was 0.000149 ± 2.3e-06 s⁻¹.

As for G60C C70U, in the series with glucosamine-6-phosphate [1], the catalytic constant (kcat) was below 1e-05 s⁻¹. Besides, in the series with glucosamine-6-phosphate [4], the “self-cleavage kobs at 160 uM GlcN6P” value was below 1e-05 s⁻¹.

For G32C A33G, in the series with glucosamine-6-phosphate [1], the kcat is below 1e-05 s⁻¹. For the same variant, the “self-cleavage kobs at 40 uM GlcN6P” value with glucosamine-6-phosphate [3] is below 1e-05 s⁻¹. In the series with glucosamine-6-phosphate [4], the “self-cleavage kobs at 160 uM GlcN6P” value was below 1e-05 s⁻¹. The “self-cleavage kobs at 2500 uM GlcN6P” value in the series with glucosamine-6-phosphate [6] is below 1e-05 s⁻¹.

With A14C C16G, in the series with glucosamine-6-phosphate [1], the kcat was determined as 8.6e-05 ± 5.5e-06 s⁻¹. In addition, the KM with glucosamine-6-phosphate [2] came to 438 ± 180 µM. The “self-cleavage kobs at 640 uM GlcN6P” value with glucosamine-6-phosphate [5] was determined as 4.86e-05 ± 1.2e-05 s⁻¹. Moreover, the “self-cleavage kobs at 2500 uM GlcN6P” value in the series with glucosamine-6-phosphate [6] stood at 8.11e-05 ± 8.9e-06 s⁻¹. Further, the “self-cleavage kobs at 10000 uM GlcN6P” value with glucosamine-6-phosphate [7] stood at 7.9e-05 ± 6.9e-06 s⁻¹.

G29C A53G: in the series with glucosamine-6-phosphate [1], the kcat was found to be 0.00235 ± 0.00053 s⁻¹. The KM in the series with glucosamine-6-phosphate [2] was 2630 ± 900 µM. For the same variant, in the series with glucosamine-6-phosphate [3], the “self-cleavage kobs at 40 uM GlcN6P” value stood at 4.79e-05 ± 7.8e-06 s⁻¹. Further, the “self-cleavage kobs at 160 uM GlcN6P” value in the series with glucosamine-6-phosphate [4] was determined as 0.000154 ± 2.3e-05 s⁻¹. Also, the “self-cleavage kobs at 640 uM GlcN6P” value with glucosamine-6-phosphate [5] is 0.000398 ± 5.6e-05 s⁻¹. The “self-cleavage kobs at 2500 uM GlcN6P” value in the series with glucosamine-6-phosphate [6] amounted to 0.000948 ± 0.00014 s⁻¹. In addition, the “self-cleavage kobs at 10000 uM GlcN6P” value in the series with glucosamine-6-phosphate [7] came out at 0.00209 ± 0.00021 s⁻¹.
